Data as given in patent publication US20240374682A1, “PHARMACEUTICAL USE OF HYPOXIA-INDUCIBLE LIPID DROPLET-ASSOCIATED PROTEIN OR TRUNCATED FRAGMENT THEREOF” (Westlake University, priority 2021, published 2024).
Residue numbers refer to the chain shown, from its start.

Columns and labels:
ES-2 cells = test: APOE3-3xHA uptake by recipient ES-2 cells with synthesized HILPDA peptides (immunofluorescence); type: cell-based; conditions: 10 μM peptide, 24 hours, versus solvent (DMSO)
Description: (§1) 1) HEK293T cells were cultured with DMEM medium in a 10 cm cell culture dish.
2) A plasmid of APOE3-3xHA gene was expressed in the above cells.
(§2) 3) After 12 hours, the old medium in 1) was replaced with fresh DMEM cell culture medium.
4) After further culturing for 48 hours, the media of the cells cultured in 3) were collected. respectively, and these media were used to directly culture the recipient ES-2 cells (Cat. No.: TCHu111. Cell Bank of Typical Culture Collection Committee of Chinese Academy of Sciences/Cell Resource Center of Shanghai Institutes for Life Sciences. Chinese Academy of Sciences) that had been pre-digested with 0.25% EDTA trypsin, and at the same time, 10 μM truncated sequence HILPDA P01, HILPDA P03 or the corresponding volume of solvent (DMSO) was added to the cell culture media.
5) After culturing for 24 hours, anti-HA antibody (Cat. No.: ab9110, abcam: a fusion protein for detecting APOE3-3xHA gene expression) was used to carry out immunofluorescent staining experiments.

[1] = system: HuH-7 cells, Hep-G2 cells or 786-0 cells; test: Uptake of Dil-labelled human low-density lipoprotein by cells (flow cytometry); type: cell-based; conditions: 10 μM peptide, 5 μg/mL LDL-Dil, 3 hours, versus solvent (DMSO)
Description: 1) HuH-7 cells (Cat. No.: TCHu182. Cell Bank of Type Culture Collection Committee of Chinese Academy of Sciences/Cell Resource Center of Shanghai Institutes for Life Sciences. Chinese Academy of Sciences) and Hep-G2 cells (Cat. No.: HB-8065. ATCC. USA) or 786-0 cells (Cat. No.: Cell Bank TCHul86. Cell Bank of Type Culture Collection Committee of Chinese Academy of Sciences/Cell Resource Center of Shanghai Institutes for Life Sciences, Chinese Academy of Sciences) were cultured with DMEM medium in a 10 cm cell culture dish.
2) Low-density lipoprotein from human plasma and Dil complex (Cat. No. L3482. Invitrogen) were added at a final concentration of 5 μg/mL to the above cells, and at the same time. 10 μM HILPDA P01, truncated sequence P03 of HILPDA or corresponding volume of solvent (DMSO) was added to the cell culture medium.
3) After culturing for 3 hours, the cells were washed twice with PBS, and the flow cytometry experiment was performed, and the Dil signal intensity of the cells was detected on the PE channel (as shown in FIGS. 8A to 8D).

SD rats [2] = test: APOE content in rat cerebrospinal fluid after lateral ventricle injection (ELISA); type: in vivo; conditions: 0.8 mg/kg lateral ventricle, 4 hours after injection, versus solvent
Description: 1) SD rats (8-10 weeks, male, Shanghai Family Planning Institute) were injected through lateral ventricle with the truncated sequence P04 of HILPDA at a dose of 0.8 mg/kg rat body weight or with the same amount of solvent (50% DMSO+50% 0.9% NaCl) in total of 20 μL:
2) After 4 hours of injection, the cerebrospinal fluid of the rat was collected:
3) ELISA kit (Cat. No.: E-EL-R1230c, ELabScience) was used to detect the apolipoprotein APOE content in the cerebrospinal fluid.

[3] = system: neuronal cells obtained by induction and differentiation of human embryonic stem cells; test: APOE uptake by recipient neuronal cells from conditioned medium (western blotting); type: cell-based; conditions: conditioned HEK293T medium, 24 hours
Description: as §1
2) The above cells separately were: transfected to express APOE2-3xHA plasmid, transfected to express APOE3-3xHA plasmid, transfected to express APOE4-3xHA plasmid, co-transfected with plasmid expressing HILPDA-Flag and APOE2-3xHA plasmid, co-transfected with plasmid expressing HILPDA-Flag and APOE3-3xHA plasmid, and co-transfected with plasmid expressing HILPDA-Flag and APOE4-3xHA plasmid.
as §2
4) After further culturing for 48 hours, the media of the cultured cells in 3) were collected, respectively, and these media were used to directly culture recipient neuronal cells, wherein the neuronal cells were obtained by induction and differentiation of human embryonic stem cells (WA09-H9 Wincell Research Institute) through STEMdiff Neural (STEMCELL Technologits) differentiation system.
5) After culturing for 24 hours, anti-Actin (Cat. No.: Proteintech, 66009-1-Ig) and anti-HA antibody (Cat. No.: ab9110, abcam: used to detect three fusion proteins expressed by different alleles APOE2-3xHA, APOE3-3xHA or APOE4-3xHA) were used to perform western blotting.

mouse brain slices = test: APOE3 uptake by mouse brain slices from conditioned medium (immunofluorescence); type: cell-based; conditions: conditioned HEK293T medium, 48 hours, versus GFP-Flag + APOE3-3xHA
Description: as §1
(§3) 2) The above cells were separately co-transfected with:
plasmid expressing GFP-FLAG and APOE3-3xHA plasmid, and
plasmid expressing HILPDA-Flag and APOE3-3xHA plasmid,
as §2
4) After further culturing for 48 hours, the media of the cultured cells in 3) were collected, respectively, and these media were used to directly culture mouse brain slices, wherein the brain slices were obtained by slicing fresh mouse brains to reach a thickness of 150 μm by a vibrating microtome. The slices were cultured in DMEM medium.
5) After culturing for 48 hours, immunofluorescent staining experiments were carried out with anti-HA antibody (Cat. No.: ab9110, abcam: for detecting APOE3-3xHA fusion protein).

[4] = system: recipient cells (786-O, 769-P, HuH7, ES-2); test: APOE uptake by recipient cells from conditioned medium of HEK293T cells co-expressing HILPDA-Flag and APOE-3xHA (immunofluorescence); type: cell-based; conditions: 24 hours
Description: as §1, §3
GFP-Flag expressing plasmid and APOE2-3xHA plasmid,
GFP-Flag expressing plasmid and APOE3-3xHA plasmid,
GFP-Flag expressing plasmid and APOE4-3xHA plasmid,
HILPDA-Flag expressing plasmid and APOE2-3xHA plasmid,
HILPDA-Flag expressing plasmid and APOE3-3xHA plasmid, and
HILPDA-Flag expressing plasmid and APOE4-3xHA plasmid.
as §2
4) After further culturing for 48 hours, the media of the cultured cells in 3) were collected, respectively, and these media were used to directly culture the recipient cells, such as 786-O (Cat. No.: Cell Bank TCHu186, Cell Bank of Type Culture Collection Committee of Chinese Academy of Sciences/Cell Resource Center of Shanghai Institutes for Life Sciences, Chinese Academy of Sciences), 769-P (Cat. No.: Cell Bank TCHu215, Cell Bank of Type Culture Collection Committee of Chinese Academy of Sciences/Cell Resource Center of Shanghai Institutes for Life Sciences, Chinese Academy of Sciences), HuH7 (Cat. No.: TCHu182, Cell Bank of Type Culture Collection Committee of Chinese Academy of Sciences/Cell Resource Center of Shanghai Institutes for Life Sciences, Chinese Academy of Sciences), ES-2 (Cat. No.: TCHu111, Cell Bank of Type Culture Collection Committee of Chinese Academy of Sciences/Cell Resource Center of Shanghai Institutes for Life Sciences, Chinese Academy of Sciences) wild-type cells, that had been pre-digested with trypsin containing 0.25% EDTA.
5) After culturing for 24 hours, anti-Flag (Cat. No.: F1804, sigma: for detecting GFP-Flag or HILPDA-Flag fusion protein) and anti-HA antibody (Cat. No.: ab9110, abcam: for detecting fusion proteins expressed by three different alleles of APOE2-3xHA, APOE3-3xHA or APOE4-3xHA) were used to perform immunofluorescent staining experiments.

SD rats [5] = test: Low-density lipoprotein cholesterol level in rat plasma after tail vein injection; type: in vivo; conditions: 1.5 mg/kg tail vein, 5 hours after injection, versus solvent
Description: 1) SD rats (8-10 weeks old, female, Shanghai Family Planning Institute) were injected through tail vein with HILPDA P02 at a dose of 1.5 mg/kg rat body weight or the same amount of solvent (50% DMSO+50% 0.9% NaCl) in total of 100 μL:
2) After 5 hours of injection, about 1 mL of blood was collected from the tail vein, and the collected blood was placed in an EDTA-K2 anticoagulant tube and underwent ice-bath for 1 hour, then centrifuged at 2000*g at 4° C., for 10 minutes, and the supernatant plasma was collected:
3) A biochemical analyzer (Mindray 240) was used to analyze the low-density lipoprotein cholesterol content in the plasma (as shown in FIG. 10).

HILPDA P03: synthesized truncated human HILPDA, SEQ ID NO: 13 (MKHVLNLYLLGVVLTLLSIF) (truncated fragment of human HILPDA)
APOE3-3xHA uptake by recipient cells (anti-HA fluorescent signal) (ES-2 cells): Promote the Clearance | uptake of human low-density lipoprotein particles (Dil signal intensity) [1]: Promote the Uptake

HILPDA P04: synthesized truncated rat HILPDA, SEQ ID NO: 14 (MKYMLNLYVLGVMLTLLSIF) (truncated fragment of rat HILPDA)
content of apolipoprotein APOE in the cerebrospinal fluid (SD rats [2]): significantly decreased

B1: HILPDA-Flag: human HILPDA protein fused with FLAG tag, expressed in HEK293T cells and secreted into culture medium (protein, UniProt Q9Y5L2 1-63, looked up)
Hypoxia-inducible lipid …: MKHVLNLYLLGVVLTLLSIFVRVMESLEGLLESPSPGTSWTTRSQLANTEPTKGLPDHPSRSM
modifications: FLAG tag
notes: human HILPDA protein fused with FLAG tag, expressed in HEK293T cells and secreted into culture medium
APOE2-3xHA level in recipient neuronal cells (anti-HA bands) ([3]; versus APOE2-3xHA alone): higher levels of APOE | APOE3-3xHA level in recipient neuronal cells (anti-HA bands) ([3]; versus APOE3-3xHA alone): higher levels of APOE | APOE4-3xHA level in recipient neuronal cells (anti-HA bands) ([3]; versus APOE4-3xHA alone): higher levels of APOE | APOE3-3xHA uptake by brain slices (anti-HA fluorescent signal) (mouse brain slices): more and stronger fluorescent signals | APOE2-3xHA uptake by recipient cells (anti-HA fluorescent signal) ([4]; versus GFP-Flag + APOE2-3xHA): more and stronger fluorescent signals | APOE3-3xHA uptake by recipient cells (anti-HA fluorescent signal) ([4]; versus GFP-Flag + APOE3-3xHA): more and stronger fluorescent signals | APOE4-3xHA uptake by recipient cells (anti-HA fluorescent signal) ([4]; versus GFP-Flag + APOE4-3xHA): more and stronger fluorescent signals

B2: HILPDA P01: synthesized mouse HILPDA polypeptide, SEQ ID NO: 2 (peptide, listed as Mus musculus)
chain: MKFMLNLYVLGIMLTLLSIFVRVMESLGGLLESPLPGSSWITRGQLANTQPPKGLPDHPSRGVQ
APOE3-3xHA uptake by recipient cells (anti-HA fluorescent signal) (ES-2 cells): Promote the Clearance | uptake of human low-density lipoprotein particles (Dil signal intensity) [1]: Promote the Uptake

B3: HILPDA P02: synthesized rat HILPDA polypeptide, SEQ ID NO: 12 (peptide, listed as Rattus norvegicus)
chain: B2 chain with F3Y, I12V, V23L, S33N, Q45H, K53R
low-density lipoprotein cholesterol level in plasma (SD rats [5]): significantly reduced
